# Assay results from paper PMC6077193, “Intravascular Schistosoma mansoni Cleave the Host Immune and Hemostatic Signaling Molecule Sphingosine-1-Phosphate via Tegumental Alkaline Phosphatase” (Frontiers in Immunology, 2018).
# Assays:
# Assay in all cases: purified protein
# [1] = tested on: Nc1ncnc2c1ncn2[C@@H]1O[C@H](COP(=O)(O)O)[C@@H](O)[C@H]1O; settings: 50 mM Tris-HCl pH 9, 5 mM KCl, 135 mM NaCl, 10 mM glucose, 10 mM MgCl2, 0-2 mM substrate
# [2] = tested on: Nc1nc2c(ncn2[C@@H]2O[C@H](COP(=O)(O)O)[C@@H](O)[C@H]2O)c(=O)[nH]1; settings: 50 mM Tris-HCl pH 9, 5 mM KCl, 135 mM NaCl, 10 mM glucose, 10 mM MgCl2, 0-2 mM substrate
# [3] = tested on: Nc1ccn([C@@H]2O[C@H](COP(=O)(O)O)[C@@H](O)[C@H]2O)c(=O)n1; settings: 50 mM Tris-HCl pH 9, 5 mM KCl, 135 mM NaCl, 10 mM glucose, 10 mM MgCl2, 0-2 mM substrate
# [4] = tested on: Cc1cn([C@H]2C[C@H](O)[C@@H](COP(=O)(O)O)O2)c(=O)[nH]c1=O; settings: 50 mM Tris-HCl pH 9, 5 mM KCl, 135 mM NaCl, 10 mM glucose, 10 mM MgCl2, 0-2 mM substrate
# [5] = tested on: O=[N+]([O-])c1ccc(OP(=O)(O)O)cc1; settings: 50 mM Tris-HCl pH 9, 5 mM KCl, 135 mM NaCl, 10 mM glucose, 10 mM MgCl2
substance,measurement,setting,value
rSmAP (recombinant Schistosoma mansoni alkaline phosphatase) (Schistosoma mansoni),Km,[1],650 µM
same,Km,[2],640 ± 11 µM
same,Km,[3],630 ± 20 µM
same,Km,[4],595 µM
same,Km,[5],288 ± 12 µM
